Results published in patent US20170051072A1.

What was measured:
[1] = molecular target: human mesothelin with His-tag (R&D Systems) (human) (UniProt Q13421); assay: ELISA, IgG on captured His-huMesothelin (R&D)
[2] = molecular target: human mesothelin with His-tag (in house) (human) (UniProt Q13421); assay: ELISA, IgG on captured His-huMesothelin (in house)
Sequence of human mesothelin with His-tag (in house) (human) (Q13421 other isoform, or with tags, fused parts or gaps limits assumed): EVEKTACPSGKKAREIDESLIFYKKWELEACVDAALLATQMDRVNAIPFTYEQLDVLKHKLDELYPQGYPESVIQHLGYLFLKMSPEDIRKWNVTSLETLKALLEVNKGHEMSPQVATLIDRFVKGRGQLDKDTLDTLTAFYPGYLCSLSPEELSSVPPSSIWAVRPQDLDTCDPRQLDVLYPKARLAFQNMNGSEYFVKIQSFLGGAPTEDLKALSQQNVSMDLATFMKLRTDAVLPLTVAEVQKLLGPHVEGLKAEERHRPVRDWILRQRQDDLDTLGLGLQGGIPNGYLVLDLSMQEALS

Sequence of human mesothelin with His-tag (R&D Systems) (human) (Q13421 other isoform, or with tags, fused parts or gaps limits assumed): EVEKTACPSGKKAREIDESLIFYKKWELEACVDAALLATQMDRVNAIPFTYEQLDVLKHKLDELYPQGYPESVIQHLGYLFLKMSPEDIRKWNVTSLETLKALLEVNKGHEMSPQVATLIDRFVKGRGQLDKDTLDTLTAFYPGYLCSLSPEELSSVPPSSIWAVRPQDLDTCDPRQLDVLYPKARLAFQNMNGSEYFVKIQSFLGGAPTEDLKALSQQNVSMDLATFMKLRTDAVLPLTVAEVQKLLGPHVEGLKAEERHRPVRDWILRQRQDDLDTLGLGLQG

- EC50 [1]: 0.0461 µg/mL
- EC50 [2]: 0.0411 µg/mL
Substance: IgG VH HC_SS1/15436 + VL LC_SS1/15455 (antibody)
